Key:
[1] = biological target: Aca1 protein of Pseudomonas aeruginosa phage JBD30, full-length (1-79), wild type (Pseudomonas aeruginosa phage JBD30); assay: SEC
[2] = biological target: T1, Aca1 (Pseudomonas aeruginosa phage JBD30, UniProt L7P845 1-79); assay: ITC
T1 sequence: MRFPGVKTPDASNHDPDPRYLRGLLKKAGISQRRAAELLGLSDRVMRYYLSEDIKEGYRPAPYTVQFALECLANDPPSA

[3] = biological target: T2, Aca2 R30A (Pectobacterium carotovorum temperate …, UniProt H9C180 1-116, R30A); assay: ITC
T2 sequence: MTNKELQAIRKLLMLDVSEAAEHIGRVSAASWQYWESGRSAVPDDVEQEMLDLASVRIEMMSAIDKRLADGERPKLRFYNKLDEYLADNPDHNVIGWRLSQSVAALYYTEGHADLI

[4] = biological target: T3, Aca2 R39A (Pectobacterium carotovorum temperate …, UniProt H9C180 1-116, R39A); assay: ITC
T3 sequence: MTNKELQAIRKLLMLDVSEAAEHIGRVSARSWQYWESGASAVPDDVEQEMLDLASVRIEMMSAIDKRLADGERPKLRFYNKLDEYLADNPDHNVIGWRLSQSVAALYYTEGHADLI

[5] = biological target: T4, Aca2 Y34A (Pectobacterium carotovorum temperate …, UniProt H9C180 1-116, Y34A); assay: ITC
T4 sequence: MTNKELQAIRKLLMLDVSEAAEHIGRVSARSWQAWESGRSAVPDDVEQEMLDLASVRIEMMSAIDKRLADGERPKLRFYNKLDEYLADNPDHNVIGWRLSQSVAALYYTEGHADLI

[6] = biological target: T5, Aca1 Y48A (Pseudomonas aeruginosa phage JBD30, UniProt L7P845 1-79, Y48A); assay: ITC
T5 sequence: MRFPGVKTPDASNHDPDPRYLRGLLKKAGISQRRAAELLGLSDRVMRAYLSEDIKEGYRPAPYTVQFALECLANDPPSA

[7] = biological target: T6, Aca1 V45A (Pseudomonas aeruginosa phage JBD30, UniProt L7P845 1-79, V45A); assay: ITC
T6 sequence: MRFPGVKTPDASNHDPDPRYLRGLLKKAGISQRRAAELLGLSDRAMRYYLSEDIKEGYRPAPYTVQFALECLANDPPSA

[8] = biological target: T7, Aca1 S42G (Pseudomonas aeruginosa phage JBD30, UniProt L7P845 1-79, S42G); assay: ITC
T7 sequence: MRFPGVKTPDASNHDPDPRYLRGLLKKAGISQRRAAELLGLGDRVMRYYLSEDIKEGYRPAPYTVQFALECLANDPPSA

[9] = biological target: T8, Aca1 R44A (Pseudomonas aeruginosa phage JBD30, UniProt L7P845 1-79, R44A); assay: ITC
T8 sequence: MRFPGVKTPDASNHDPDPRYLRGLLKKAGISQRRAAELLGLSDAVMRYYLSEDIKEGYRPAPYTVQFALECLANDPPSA

[10] = biological target: T9, Aca1 R59A (Pseudomonas aeruginosa phage JBD30, UniProt L7P845 1-79, R59A); assay: ITC
T9 sequence: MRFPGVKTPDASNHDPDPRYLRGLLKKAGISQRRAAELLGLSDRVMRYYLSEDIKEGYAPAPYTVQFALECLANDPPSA

[11] = biological target: T10, Aca1 R22A/Q32A (Pseudomonas aeruginosa phage JBD30, UniProt L7P845 1-79, R22A;Q32A); assay: ITC
T10 sequence: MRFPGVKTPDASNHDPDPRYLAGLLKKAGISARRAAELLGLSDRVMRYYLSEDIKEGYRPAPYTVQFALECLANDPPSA

[12] = biological target: T11, Aca1 R47A (Pseudomonas aeruginosa phage JBD30, UniProt L7P845 1-79, R47A); assay: ITC
T11 sequence: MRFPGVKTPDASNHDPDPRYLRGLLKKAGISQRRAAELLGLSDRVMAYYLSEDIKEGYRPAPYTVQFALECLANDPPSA

Molecule: Aca1 protein of Pseudomonas aeruginosa phage JBD30, full-length (1-79), wild type (natural protein)
- stoichiometry N [1]: 2

B1: 23-bp IR2 (dsDNA)
DNA 1: AATTAGGCACAATGTGCCTAATC
DNA 2: GATTAGGCACATTGTGCCTAATT
- Kd [2]: 32.2 nM

B2: 19-bp IR2 blunt (dsDNA)
DNA 1: TTAGGCACAATGTGCCTAA
DNA 2: TTAGGCACATTGTGCCTAA
- Kd [2]: 741 nM

B3: 21-bp IR1 (dsDNA)
DNA 1: AAGCGGCACACTGTGCCTATT
DNA 2: AATAGGCACAGTGTGCCGCTT
- Kd [2]: 53.2 nM

B4: 26-bp ZF40-IR1 blunt (dsDNA)
DNA 1: TGCTTGTTCGCGATTGCGAACATATA
DNA 2: TATATGTTCGCAATCGCGAACAAGCA
- binding result [3]: no binding
- binding result [4]: no binding
- binding result [5]: no binding

B5: 21-bp IR2 (dsDNA)
DNA 1: ATTAGGCACAATGTGCCTAAT
DNA 2: ATTAGGCACATTGTGCCTAAT
- Kd [6]: 2860 nM
- Kd [2]: 74.1 nM
- Kd [7]: 364 nM
- Kd [8]: 59.2 nM
- binding result [9]: no binding
- binding result [10]: no binding
- binding result [11]: no binding
- binding result [12]: no binding

— publication PMC8633003
